From article PMC10619491, “SET7/9-mediated methylation affects oncogenic functions of histone demethylase JMJD2A” (JCI Insight, 2023)
One block for each binder: values may come before it. Ends that are not written are not given here.

Target: T1, GST–ETV1(249–477) fusion protein (UniProt P50549 249-477)
T1 construct: ETV1, C-terminal half, residues 249-477; In the MST it was labelled through an anti-GST mouse mAb coupled to Alexa Fluor 647; also called fusion between GST and the C-terminal half of ETV1 (aa 249–477); source: E. coli, purified
T1 sequence (looked up): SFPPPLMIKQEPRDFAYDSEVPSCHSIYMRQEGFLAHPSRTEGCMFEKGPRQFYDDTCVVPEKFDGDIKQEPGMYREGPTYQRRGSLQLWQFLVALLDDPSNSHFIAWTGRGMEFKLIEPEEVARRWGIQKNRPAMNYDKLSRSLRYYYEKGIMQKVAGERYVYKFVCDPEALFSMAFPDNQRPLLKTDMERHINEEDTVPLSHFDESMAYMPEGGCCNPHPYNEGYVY
Experiment: MST; Monolith NT.115; 15 serial dilutions of peptide (starting concentration 50 μM) against 300 nM GST–ETV1(249–477) with 20 nM anti-GST mouse mAb coupled to Alexa Fluor 647; PBS with 0.05% Tween-20
Conditions: both partners purified

Kd: 25.4 µM
B1: unmethylated (WT) peptide spanning JMJD2A aa 490–522 (peptide, UniProt O75164 490-522, looked up)
peptide: VNPASVGGRLVFSGSKKKSSSSLGSGSSRDSIS-NH2
notes: JMJD2A/KDM4A, human, residues 490-522; also called JMJD2A aa 490–522 peptide; source: synthetic peptide (GenScript)

Kd: 8.7 µM
B2: triple methylated (on K505, K506, and K507; 3xme) peptide spanning JMJD2A aa 490–522 (peptide, UniProt O75164 490-522, looked up)
peptide: VNPASVGGRLVFSGSK(Me)K(Me)K(Me)SSSSLGSGSSRDSIS-NH2
modifications: N-terminus assumed
SMILES: CC[C@H](C)[C@H](NC(=O)[C@H](CO)NC(=O)[C@H](CC(=O)O)NC(=O)[C@H](CCCNC(=N)N)NC(=O)[C@H](CO)NC(=O)[C@H](CO)NC(=O)CNC(=O)[C@H](CO)NC(=O)CNC(=O)[C@H](CC(C)C)NC(=O)[C@H](CO)NC(=O)[C@H](CO)NC(=O)[C@H](CO)NC(=O)[C@H](CO)NC(=O)[C@H](CCCCNC)NC(=O)[C@H](CCCCNC)NC(=O)[C@H](CCCCNC)NC(=O)[C@H](CO)NC(=O)CNC(=O)[C@H](CO)NC(=O)[C@H](Cc1ccccc1)NC(=O)[C@@H](NC(=O)[C@H](CC(C)C)NC(=O)[C@H](CCCNC(=N)N)NC(=O)CNC(=O)CNC(=O)[C@@H](NC(=O)[C@H](CO)NC(=O)[C@H](C)NC(=O)[C@@H]1CCCN1C(=O)[C@H](CC(N)=O)NC(=O)[C@@H](N)C(C)C)C(C)C)C(C)C)C(=O)N[C@@H](CO)C(N)=O
notes: JMJD2A/KDM4A, human, residues 490-522; source: synthetic peptide (GenScript)
